Data on two molecules can be found in patent publication US20140099324A1 (University of Texas, published 2014).

Experiment [1] concerns the target HERV-K recombinant fusion protein K10Q18 (K-SU in pQE30, N-terminal 6-His) (human endogenous retrovirus K). Kind of experiment: flow cytometry on dendritic cells pulsed with the protein. A general note: In flow cytometry, cells or beads pass a laser one at a time.
In experiment [2] the target is T1, HERV-K env protein expressed endogenously by human cancer cell lines (human endogenous retrovirus K).
T1 chain: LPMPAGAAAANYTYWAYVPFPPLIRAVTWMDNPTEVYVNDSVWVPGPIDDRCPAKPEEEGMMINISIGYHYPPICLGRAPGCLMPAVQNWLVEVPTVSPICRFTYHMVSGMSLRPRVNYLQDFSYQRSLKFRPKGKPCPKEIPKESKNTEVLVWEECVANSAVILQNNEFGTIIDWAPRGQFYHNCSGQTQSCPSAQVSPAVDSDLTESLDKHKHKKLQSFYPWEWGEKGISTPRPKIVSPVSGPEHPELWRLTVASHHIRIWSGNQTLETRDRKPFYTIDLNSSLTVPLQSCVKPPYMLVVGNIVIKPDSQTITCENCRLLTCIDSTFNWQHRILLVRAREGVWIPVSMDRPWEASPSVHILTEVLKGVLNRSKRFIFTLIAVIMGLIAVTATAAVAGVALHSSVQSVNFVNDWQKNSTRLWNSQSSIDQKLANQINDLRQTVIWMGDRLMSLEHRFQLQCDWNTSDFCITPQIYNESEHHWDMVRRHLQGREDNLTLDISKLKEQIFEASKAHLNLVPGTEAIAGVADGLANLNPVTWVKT
Kind of experiment: cell-based or functional assay.

As to anti-RGS monoclonal antibody (Qiagen), the percent of DCs positive in experiment [1] was greater than 70%.

B1: anti-HERV-K env monoclonal antibody 6H5 (antibody, V domains shown)
VH: MAQVKLQQSGPDLVKPGASVKISCKASGYSFTGYYMHWVKQSHGKSLEWIGRVNPNSGGTSYNQKFKDKAILTVDKSSSTAYMELRSLTSEDSAVYYCARSKGNYFYAMDY
VL: ASLAVSLGQRATISCRASESVDSHGTSFMHWYQQKPGQPPKFLIYRASNLESGIPARFSGSGSRTDFTLTINPVETDDVAIYYCQQSNEDPPTFGGGTKLEIK
On to B1, for which, in experiment [2], the “IC50, cytotoxicity toward MCF-7 breast cancer cells (72 h, crystal violet)” value was 51.7 nM and the “IC50, cytotoxicity toward MDA-MB-231 breast cancer cells (72 h, crystal violet)” value is 6.6 nM.
